Reference: publication doi:10.1101/2021.05.21.445118

Experiments:
Experiment in all cases: SPR
[1] = target: human extracellular ACE2 p.Glu329Gly (human) (UniProt Q9BYF1)
[2] = target: human extracellular ACE2 p.Glu35Lys (human) (UniProt Q9BYF1)
[3] = target: human extracellular ACE2 p.Lys26Arg (human) (UniProt Q9BYF1)
[4] = target: human extracellular ACE2 p.Ser19Pro (human) (UniProt Q9BYF1)

SARS-CoV-2 Spike receptor binding domain (from UniProt P0DTC2) (domain or fragment)
ΔΔG against WT ACE2 [1]: -0.09 kcal/mol
ΔΔG against WT ACE2 [2]: -0.36 kcal/mol
ΔΔG against WT ACE2 [3]: 0.26 kcal/mol
ΔΔG against WT ACE2 [4]: 0.59 kcal/mol
